This note sets out measurements from the supplement of paper PMC12042874.

± gives the uncertainty stated by the source.

This series is described as follows: amyloid nucleation score (Sup35N fusion, yeast selection) (log enrichment); library NNK3; higher = more nucleation; inactive = no reads after selection. The method, boiled down: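 The nucleation score is the DiMSum log enrichment of output over input reads, centred on the mode score of non-aggregating sequences. Only sequences with 100 or more input reads were scored, using Illumina sequencing of input and output plasmid inserts. Psi-negative yeast expressing Sup35N fused to peptides of 20 random codons were induced 24 hours with 100 μM copper sulfate and grown 7 days at 30°C on medium lacking adenine and uracil.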
Regarding VGKFSHACLRIN, the amyloid nucleation score result was “inactive”. The value for VFSIND was “inactive”; that for LVYKLRGRCYERLYKWRLCD was “inactive”.

As for SKLCVVTFLCIQTCQYDLCV, the amyloid nucleation score entry was “inactive”. Regarding NASLI, the amyloid nucleation score entry was “inactive”. The value for VLTIRRFLRVSHFRNQWFPV was “inactive”; that for FVPRPISNSAGIP was “inactive”. To FLHDFSILIGMICNQIGITL belongs 1.24 ± 0.17; to YNSRDDSIKFFFVRSCILTY, “inactive”; to KNDSVKSKCVSIGVPVPLLV, “inactive”. The value for GIKVLTTCGHKKFVGINSVM was “inactive”. Take INYLFASRSKQEQLLDWRFS: the amyloid nucleation score result is “inactive”. As to MPCLYALLYG, the amyloid nucleation score result is “inactive”. Turning to QCLIYLYVFVLPVLEFGMDR, the amyloid nucleation score entry is “inactive”. As to RTFPNTWHAMIFGCVNKPNC, the amyloid nucleation score result is “inactive”.

Take GMVNDYVVTVNFPCFWLG: the amyloid nucleation score stood at 2.19 ± 0.079. On to ISKSVLMMNTAKIPPPMF, for which the amyloid nucleation score entry was “inactive”. The value for KIYANHLL was “inactive”. The value for NSSAKGFVQV was “inactive”. As for RYGDWLHHS, the amyloid nucleation score result was “inactive”. The value for YFIMSFSLQNFMGSPLNRLG was “inactive”. To LDKFHCRFYMQNSN belongs “inactive”. For the substance AMNPLRLGLWSYNRLAWNMS, the amyloid nucleation score entry is “inactive”. ISDDICSVKVSGRRACHWIG: the amyloid nucleation score entry is “inactive”. Turning to NDTFNAK, the amyloid nucleation score result was “inactive”. Take GFMLWTHKKLARPEATAV: the amyloid nucleation score entry is “inactive”. To AKATMPIT belongs “inactive”.

As for GTCKS, the amyloid nucleation score entry is “inactive”.

For FATFYVQQGFGNFAPKAYS, the amyloid nucleation score result was “inactive”. The value for DGMNSPRMEIRDRDRSAYIL was “inactive”. To WAPLQALSFGK belongs “inactive”. The value for YLTVCRGRNTEGYGWEVNS was “inactive”; that for TMDTYSVPPHNFGMLCYGL was “inactive”. Regarding EAKLVGGFTDFRELITNCLV, the amyloid nucleation score amounted to 1.01 ± 0.17. The value for FNFTVSRVPISVMVLQKRRK was 1.18 ± 0.086. To IRALRKRDEDGSLLTGTLFC belongs -0.385 ± 1.1; to TNNQNSDRFGVTVPSLTFVR, “inactive”; to ILLRPPGWSRQWSVRWGNYP, “inactive”.

Turning to AFVNLYGKSARQSRQPMA, the amyloid nucleation score entry was “inactive”. As for LDGRYKYILFLLPLCRW, the amyloid nucleation score entry is “inactive”. The value for QMDRRTPLM was “inactive”. To FTSFSYYMVCFCADIIKQG belongs 1.97 ± 0.065. Regarding LGTGSLNHST, the amyloid nucleation score entry is “inactive”. With PREWLGVLLMTVLNFWMTVV, the amyloid nucleation score result is “inactive”. The value for LSPQSIVSYYTLWTFGFTAC was -0.28 ± 0.77; that for RYWHEASVVGFIWGKWVDVS was “inactive”; that for NYLVVLMGSTCMKVRPLGVS was “inactive”. The value for IPHAARLCLMWIILWLI was “inactive”; that for VRITSMPTFWRIEPGYLERV was “inactive”. To EVKGTCWVCVLVHVATSYVG belongs 0.65 ± 0.21; to WEHLGETYGVFMSTEDRESG, “inactive”; to YTVSS, “inactive”.

As to DFARGYGDNALVFYLYGLMY, the amyloid nucleation score is -0.684 ± 0.8.

In turn, LSVYGLQGHSNHNRMDGISW returned an amyloid nucleation score of 0.718 ± 0.2.

Take APLEFLSSLDWIRPELALTF: the amyloid nucleation score entry is “inactive”. The value for SPDDVDYFFLVRNDRMCAYV was “inactive”; that for QRAYVLVTLVFGA was “inactive”. The value for FVNISHMY was “inactive”; that for NYIDGFFFVHWAGTLMHKDC was “inactive”. The value for RIMGSPQSDS was “inactive”; that for GFGFP was “inactive”; that for VEQLTEDKRWRSACKQRRKV was “inactive”.

Consider RFILDVMRVAAGFMVSK, for which the amyloid nucleation score result is “inactive”. The value for CRRVTKFESAFTWIFCKSCD was -0.013 ± 0.39; that for HVYLAQGL was “inactive”. As to VLLMLLTV, the amyloid nucleation score entry is “inactive”.

For FNVSTGCRWSWAPDHSPCQE, the amyloid nucleation score is -0.058 ± 0.66. To FYYTKDPRIGKNNYLCV belongs “inactive”.

As for SSSNTRFVGAERCVGSWCGS, the amyloid nucleation score result is “inactive”. The value for LGSMAINCNERCITWCHRFI was 0.668 ± 0.25. On to TFDFPHIRRLEFKFAI, for which the amyloid nucleation score entry was “inactive”. To PPLYSRYLSFNGMTKVPWIC belongs “inactive”; to MMNVWLAFAPGML, 0.9 ± 0.14. Regarding TYLEMDIAPAMRLCS, the amyloid nucleation score result was “inactive”. The value for LGQFAIAQYFNRYSRGPMLW was “inactive”; that for LYETSRSFPH was “inactive”. Regarding PGVLLVWLSYSGSRLLS, the amyloid nucleation score result is “inactive”. The value for HWFRTGDMGVDFTVEACDWL was “inactive”; that for SGGGIPGTLGSGDPSSPNTQ was “inactive”; that for GTIYMFENGSSVS was “inactive”.

Take RSSESNIICTTLRYLSVVVY: the amyloid nucleation score result is “inactive”.

GHIYCYSVKE: the amyloid nucleation score result is “inactive”. To ETWLKTINRLGLNRSHLSIL belongs “inactive”; to INRDYSVIVSGSYHHSSLTE, “inactive”. To ADIGPHRCVLGAMMRWCRQT belongs “inactive”; to LFGQVVGVDFFNWWCFEMHK, “inactive”. To LSRLFLSRVGHVIYTKSSVD belongs “inactive”; to CFMSLLNF, “inactive”. As to ICDFCQQCSVNERKTLNYSA, the amyloid nucleation score entry was “inactive”. To TLSYVCTNAGGSVFMTCLFF belongs -0.104 ± 0.58; to GFIMEYDEY, “inactive”. To NCLLTFDQNYTRGIPAKI belongs “inactive”; to RTSYLVLMKCYSALDYGVIA, “inactive”; to LHVYTSILWWTYKVDVWLLS, “inactive”. To HYDFWIISYLPRSPGNMAID belongs “inactive”; to ISQFHYLGRIST, “inactive”.

VVRFLDQKMYVVGLLSGS: the amyloid nucleation score entry is “inactive”.
